In assay [1] the target is T1, hCD33 and hCD123 immobilized simultaneously on one switchSENSE chip (ratio 2:1, CD33:CD123) (human, UniProt P20138 18-259; P26951 19-305, limits assumed).
T1 construct: Not a complex: two separate ligands on one surface; used for avidity values and for off-rates; also called both ligands; both targets attached to the surface of the chip
The assay can be described thus: switchSENSE, hCD33 and hCD123 co-immobilised 2:1; panel headed CD33, column KD2 (avidity, simultaneous binding of CD33 and CD123 per paragraph 696). On the procedure: (§1) The designed ankyrin repeat proteins: DARPin® protein #20, DARPin® protein #21, DARPin® protein #22, DARPin® protein #27, DARPin® protein #40 and DARPin® protein #41 were tested in a concentration of 0.16 and 64 nM (in a buffer PE140 containing 10 mM Na2HPO4/NaH2PO4, 140 mM NaCl, 0.05% Tween20, 50 μM EDTA, 50 μM EGTA) for binding against two ligands hCD33 and hCD123, which both were immobilized simultaneously to DNA nanolevers, on the surface, at a pre-defined ratio (2:1, CD33:CD123) and 10% density (100:50) on an ADP-48-1-0 chip, where 100% density 1000 receptors/μm2 (preincubated R1-B48-CD123 and G1-A48-CD33 (100 nM) diluted in cNL-48 (dark)). Briefly the following steps were performed: [0724] Conjugation. Amine coupling of the two ligands (CD33 and CD123) to the DNA nanolever (A48, B48, respectively) and purification of the conjugates using the proFIRE® solution (Dynamic Biosensors GmbH) at 25° C. [0725] Evaluation of all the combined affinity and avidity of all different proteins to both ligands attached on the surface of an ADP chip using a DRX+ instrument (dynamic BIOSENSORS). [0726] Statistical analysis (repeatability from 2 to 5 times) including regeneration of the chip surface every concentration analyzed and long dissociation times and data were fitted using a bi-exponential global fit.

Assay [2] addresses T1, hCD33 and hCD123 immobilized …. Briefly: switchSENSE; KD,2 (avidity, simultaneous binding of CD33 and CD123). The protocol:
as §1

Assay [3] has as its target T2, hCD33 (recombinant, construct not stated) (human, UniProt P20138 18-259, limits assumed).
T2 construct: also called CD33 (Ligand 1)
The assay can be described thus: switchSENSE, CD33 and CD123 on one chip; kon to CD33. The protocol:
as §1

Assay [4] concerns the target T1, hCD33 and hCD123 immobilized …. Briefly: switchSENSE; KD,2 against KD,1. On the procedure: as §1
Assay [5] addresses T3, extracellular domain of human CD70 (SEQ ID NO: 89), hCD70-Fc-trimer, ACRO Biosystems (human, UniProt P32970 52-193, chemically biotinylated where the biotinylated form was used).
T3 construct: also called human CD70-Fc-trimer; Bio.CD70
T3 sequence: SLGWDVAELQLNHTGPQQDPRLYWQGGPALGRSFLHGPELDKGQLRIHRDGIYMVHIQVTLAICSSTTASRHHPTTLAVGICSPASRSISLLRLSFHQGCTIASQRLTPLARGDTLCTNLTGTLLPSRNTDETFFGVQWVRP
The assay can be described thus: SPR (ProteOn XPR36), target on GLC chip.

Assay [6] concerns the target T1, hCD33 and hCD123 immobilized …. Briefly: switchSENSE, CD33 and CD123 on one chip; slow phase (avidity); slow phase (avidity).

From patent publication US20240254229A1 (Molecular Partners, published 2024) come the findings set out here.

T1 sequence (P20138 18-259 limits assumed, one chain of several): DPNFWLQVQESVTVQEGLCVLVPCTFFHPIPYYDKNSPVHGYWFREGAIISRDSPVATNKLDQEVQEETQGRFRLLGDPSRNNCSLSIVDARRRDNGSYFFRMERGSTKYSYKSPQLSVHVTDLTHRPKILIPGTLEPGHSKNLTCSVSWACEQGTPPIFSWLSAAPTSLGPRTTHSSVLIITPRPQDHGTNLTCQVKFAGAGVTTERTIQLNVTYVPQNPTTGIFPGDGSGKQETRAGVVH
T2 sequence (P20138 18-259 limits assumed): as the sequence (P20138 18-259 limits assumed, one chain of several) above

B1: DARPin® protein #27 (designed binder)
chain: DLGKKLLEAALEGQLDEVRELLKAGADVNAKDQEGYTPLHLAAALGHLEIVEVLLKAGADVNAKDSIGRTPLHLAAYKGHLEIVEVLLKAGADVNAQDLLGETPADLAAEQGHQDIAEVLQKAAGSPTPTPTTPTPTPTTPTPTPTGSDLGVKLLLAASRGQLDEVRILLKAGADVNAKDIDEGYTPLHIAAYYGHLEIVEVLLKAGADVNAKDRYGKTPLHLAAISGHLEIVEVLLKAGADVNAQDDKGDTPADLAADYGHQDIAEVLQKAAGSPTPTPTTPTPTPTTPTPTPTGSDLGQKLLEAAWAGQDDEVRELLKAGADVNAKNSRGWTPLHTAAQTGHLEIFEVLLKAGADVNAKDDKGVTPLHLAAALGHLEIVEVLLKAGADVNAQDSWGTTPADLAAKYGHEDIAEVLQKAA
notes: CD123-CD33-CD3; also called αCD123-aCD33-αCD3_1; not shown: N-terminal His-tag
Usually kon stands for the rate constant with which the complex forms. As usually defined, the koff is the rate constant with which the complex falls apart. On to B1, for which the values for the Kd in assay [1] and in assay [2] were 0.17 nM and 0.2 to 0.3 nM, respectively. In assay [3], the kon is around 1e+06 M⁻¹ s⁻¹. Also, the “fold lower KD,2 (avidity) than the measured affinity” value in assay [4] was at least 14 fold. In assay [5], the binding result is recorded as “no binding (tested: 100 nM (highest concentration))”. The koff in assay [6] was around 0.001 s⁻¹.
